Assay results reported in the supplement of paper PMC9170038.

Test system: MS2 coat protein
Experiment: apparent KD of MS2 coat protein; designed switch direction (-1 OFF switch, 1 ON switch): 1; higher = weaker reporter binding
Procedure, shortened: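 Designed RNA switches were transcribed on Illumina chips by stalled E. coli RNA polymerase and titrated with SNAP-549-labelled MS2 coat protein from 0.7 or 1.5 nM, doubling to 3 µM. Step length ran from 0.8–1.5 h at the lowest concentration to 10–20 min at the highest. The apparent KD is the median over clusters for each design, from curve-fitted normalised cluster fluorescence.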

[1] = input ligand: microRNA oligo, concentration not stated
[2] = Eterna round: R95, input ligand: FMN 200 uM
[3] = Eterna round: R95, input ligand: microRNA oligo, concentration not stated
[4] = Eterna round: R95, input ligand: none

Sequence | apparent KD of MS2 coat protein (input ligand: FMN 200 uM) | apparent KD of MS2 coat protein [1] | apparent KD of MS2 coat protein (input ligand: none) | apparent KD of MS2 coat protein [2] | apparent KD of MS2 coat protein [3] | apparent KD of MS2 coat protein [4]
UGGCUCAGACGAGGAUAUAUGUGGUCACAUGAGGAUCACCCAUGUCUCGAGCUUCGGCUCGAGGCAUAGAAGGCGUCUGAGCCU [SSNG2/5-A3] (Eterna round: R96, puzzle: Same State NG 2) | 200 nM | 7.4 nM | 148 nM | – | – | –
UGGCUCAGACUAGGAUAUAUGUGGUCACAUGAGGAUCACCCAUGUCUCGAGCUUCGGCUCGAGGCAUAGAAGGAGUCUGAGCCU [SSNG2/5-D3] (Eterna round: R96, puzzle: Same State NG 2) | 249 nM | 15.3 nM | 59.9 nM | – | – | –
UGGCUCAGACUAGGAUAUGAUCAUGGCGCUUCGGCGCAUACAUGAGGAUCACCCAUGUAAAGUGAUCAGAAGGAGUCUGAGCCU [SSNG2/7-C3] (Eterna round: R96, puzzle: Same State NG 2) | 14.2 nM | 10.6 nM | 19.7 nM | – | – | –
UGGCUCAGAGCAGGAUAUAUGUGAUCACAUGAGGAUCACCCAUGUCUCGAGCUUCGGCUCGAGACAUAGAAGGGCUCUGAGCCA [SSNG2/3-B2] (Eterna round: R96, puzzle: Same State NG 2) | 23.3 nM | 21.8 nM | 22.5 nM | – | – | –
UGGCUCAGAGCAGGAUAUAUGUGGUCACAUGAGGAUCACCCAUGUCUCGAGCUUCGGCUCGAGGCAUAGAAGGGCUCUGAGCCU [SSNG2/5-B3] (Eterna round: R96, puzzle: Same State NG 2) | 704 nM | 21.4 nM | 85.9 nM | – | – | –
UGGCUGGUGCUAGGAUAUGCAUGAGGCAUCCUCGUAGAAGGAGCACGACAUGAGGAUCACCCAUGUAGCCGUCCGUAGACGGCU [salish99_SSNG1_r04_010] (Eterna round: R96, puzzle: Same State NG 1) | 673 nM | 348 nM | 1060 nM | – | – | –
UGGUACAUGGGAGGAUAUCUCAUGGUGACAUGAGGAUCACCCAUGUAGUUGGUGCCGAAAGGCUGAGAGAAGGCCCAUGUACCU [JL SSNG1 3.76] (Eterna round: R96, puzzle: Same State NG 2) | 62.9 nM | 59.3 nM | 99.9 nM | – | – | –
UGUCCAGCCUGAGCUGGACAAAAGCAUGUACAUGAGGAUCACCCAUGUUCAUGUACAAGCUUUUUGCUCGUCUUACC [salish99_208a_r3_083] (puzzle: Sensor for hsa-mir-208a) | – | – | – | 464 nM | 15.9 nM | 610 nM
UGUCCAGCCUGAGCUGGACAAAAGCAUGUACAUGAGGAUCACCCAUGUUCAUGUACAAGCUUUUUGCUCGUCUUAGU [salish99_208a_r3_065] (puzzle: Sensor for hsa-mir-208a) | – | – | – | 489 nM | 13.8 nM | 619 nM
UGUUGGUUUUUGCUCGUUUUUUGUGUUGAACAUGAGGAUCACCCAUGUAUUGUACAGUCCAGUUUGGUAAUGGUGCG [JR_SHM208A_Sub046] (puzzle: Sensor for hsa-mir-208a) | – | – | – | 41.6 nM | 31.4 nM | 57.5 nM
UGUUGUAUUACAGGAUAUCUAGUAUUUUUAUUAAGAGAAGGGUAUUCACAUGAGGAUCACCCAUGUAUAUACGAGGAAGUUGUG [JMF's solution 54] (Eterna round: R96, puzzle: Same State NG 1) | – | 33.7 nM | – | – | – | –
UGUUGUAUUACAGGAUAUCUAUGAUUUUUAUUUAGAGAAGGGUAUUCACAUGAGGAUCACCCAUGUAUAUACGAGGAAGUUGUG [JMF's solution 11] (Eterna round: R96, puzzle: Same State NG 1) | – | 36.8 nM | – | – | – | –
UGUUGUAUUACAGGAUAUCUAUUAGUAUUAUUUAGAGAAGGGUAUUCACAUGAGGAUCACCCAUGUAUAUACGAGGAAGUUGUG [JMF's solution 89] (Eterna round: R96, puzzle: Same State NG 1) | – | 34.8 nM | – | – | – | –
UGUUGUAUUACAGGAUAUCUAUUAGUUUGAUUUAGAGAAGGGUAUUCACAUGAGGAUCACCCAUGUAUAUACGAGGAAGUUGUG [JMF's solution 94] (Eterna round: R96, puzzle: Same State NG 1) | – | 41.4 nM | – | – | – | –
UGUUGUAUUACAGGAUAUCUAUUAGUUUUAAUUAGAGAAGGGUAUUCACAUGAGGAUCACCCAUGUAUAUACGAGGAAGUUGUG [JMF's solution 98] (Eterna round: R96, puzzle: Same State NG 1) | – | 33.8 nM | – | – | – | –
UGUUGUAUUACAGGAUAUCUAUUAUUUUUGUUUAGAGAAGGGUAUUCACAUGAGGAUCACCCAUGUAUAUACGAGGAAGUUGUG [JMF's solution 24] (Eterna round: R96, puzzle: Same State NG 1) | – | 37.6 nM | – | – | – | –

Sequence | apparent KD of MS2 coat protein (input ligand: FMN 200 uM) | apparent KD of MS2 coat protein [1] | apparent KD of MS2 coat protein (input ligand: none) | apparent KD of MS2 coat protein [2] | apparent KD of MS2 coat protein [3] | apparent KD of MS2 coat protein [4]
UGUUGUAUUACAGGAUAUCUAUUGUUUUUAUAUAGAGAAGGGUAUUCACAUGAGGAUCACCCAUGUAUAUACGAGGAAGUUGUG [JMF's solution 84] (Eterna round: R96, puzzle: Same State NG 1) | – | 33.2 nM | – | – | – | –
UGUUGUAUUACAGGAUAUCUAUUGUUUUUAUGUAGAGAAGGGUAUUCACAUGAGGAUCACCCAUGUAUAUACGAGGAAGUUGUG [JMF's solution 85] (Eterna round: R96, puzzle: Same State NG 1) | 53.2 nM | 36.6 nM | 48.8 nM | – | – | –
UGUUGUUAAUUAGGAUAUGGUCACAUGAGGAUCACCCAUGUAAUGUCGAUGCUAUGUGGAUCCGAUCAGAAGGAAUGGCUAACA [SameState NG2 #95] (Eterna round: R96, puzzle: Same State NG 2) | 201 nM | 121 nM | 204 nM | – | – | –
UUAACAUGACGAGGAUAUCAUUUAUAUCUUGAUUGAGAAGGCGUUCUUUUUUUUACCUAACAUGAGGAUCACCCAUGUGACAGU [JR_SSNG1_Sub051] (Eterna round: R96, puzzle: Same State NG 1) | 12.4 nM | 13.7 nM | 17.6 nM | – | – | –
UUAACAUGAGGAUCACCCAUGUAUACGGAGUUUGCAAUUUGACAGGAUAUUGAAGAUCUAUAUAGCAAGAAGGGUCGUUAGUCU [JR_SSNG3_Sub006] (Eterna round: R96, puzzle: Same State NG 3) | 47.5 nM | 32.6 nM | 44.7 nM | – | – | –
UUAAGCCACGGGCAGGAUAUGUAUUAAUAUACAUGAGGAUCACCCAUGUGCAGGUGUAACACCUGACAGAAGGGCCAAUCGCGGC [Soondi - 5] (puzzle: Same State 2) | – | – | – | 35 nM | 177 nM | 286 nM
UUAAUAAAUCAAGGAUAUCACGUCGUUUAGACGUGAGAAGGUGAUCAUAACAUGAGGAUCACCCAUGUAUUACAUGAAUAUUAA [SSNG1/1-B3] (Eterna round: R96, puzzle: Same State NG 1) | 1180 nM | 778 nM | 1570 nM | – | – | –
UUAAUGAUGUAAGGAUAUACAUGAGGAUUUCUCGUAGAAGGUACAGGACAUGAGGAUCACCCAUGUAUCGCUCCGUAGAGCGUA [JL SSNG1 1.11] (Eterna round: R96, puzzle: Same State NG 1) | 136 nM | 292 nM | 356 nM | – | – | –
UUAAUUAAUUAAUUAUACAUGAGGAUCACCCAUGUAAGUGAUCAGGAUAUCAGCUCGAUUAGAGCUGAGAAGGGAUACAUGUAA [SSNG3/13-A2] (Eterna round: R96, puzzle: Same State NG 3) | 142 nM | 164 nM | 191 nM | – | – | –
UUACUCAUGUAAGGAUAUGCAGCCGAAACGGCUGCAGAAGGUACUAUAAUACAUGAGGAUCACCCAUGUCUUUUUAAUUUUUAC [Mat - Same State NG 1 - JL mod - D70] (Eterna round: R96, puzzle: Same State NG 1) | 47.5 nM | 37 nM | 44.1 nM | – | – | –
UUAGAAUUGCAAGGAUAUCUAAUUUAGAUAGUAAGAGAAGGUGCUUUAUAGUUACAUGAGGAUCACCCAUGUUUUUUUUUUUAU [JR_SSNG1_Sub060] (Eterna round: R96, puzzle: Same State NG 1) | 42.3 nM | 36.3 nM | 49.9 nM | – | – | –
UUAGAAUUGCAAGGAUAUCUUAUUUAGAUAGUAAGAGAAGGUGCUUUAUAGUUACAUGAGGAUCACCCAUGUAUUUCUUUUUAU [JR_SSNG1_Sub061] (Eterna round: R96, puzzle: Same State NG 1) | – | 16.6 nM | – | – | – | –
UUAGUCAUGUAAGGAUAUGCAGCCGAAACGGCUGCAGAAGGUACUAUAAUUACAUGAGGAUCACCCAUGUUAUAAAAUUUAUAU [Mat - Same State NG 1 - JL mod - D62] (Eterna round: R96, puzzle: Same State NG 1) | 23.4 nM | 28.7 nM | 41.2 nM | – | – | –
UUAUCACAUGAGGAUCACCCAUGUUAUACUUUUUUAGGAUAUUUUAUGUAUGACCAAAUAAAAGAAGGAGGAAUAA [flagellum_key_01] (puzzle: Same State 1) | – | – | – | 31.2 nM | 44.4 nM | 47 nM
UUCACCUUUUUUUACAUGAGGAUCACCCAUGUUUUCCCUACGUAGGAUAUCGAUGCUUGAUUGUUCGAGAAGGACGUUGUAAGU [JR_SSND3_Sub056] (Eterna round: R96, puzzle: Same State NG 3) | 29.6 nM | 20.7 nM | 33.7 nM | – | – | –
UUCACCUUUUUUUACAUGAGGAUCACCCAUGUUUUUUUUACGUAGGAUAUCGAUGCUUGUUUUUUCGAGAAGGACGAUGUAAGU [JR_SSND3_Sub052] (Eterna round: R96, puzzle: Same State NG 3) | 16.7 nM | 12.2 nM | 18.2 nM | – | – | –
